Source: patent US20110150888A1 (Amgen, published 2011)
Where no end group is shown, it is not given here.

T1: mouse hepcidin (mouse, UniProt Q9EQ21 59-83)
T1 peptide (looked up): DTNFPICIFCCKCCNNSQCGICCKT

B1: antibody 1S1 (antibody, human IgG2, kappa, V domains shown)
VH: QVQLVQSGDEVKKPGASVKVSCKASGYTFIKYGISWVRQAPGQGLEWMGWIGAFNGNTDYARNLQARVTMTTDTSTSTAYMELRSLRSDDTAVYYCAREGWNDDYFSGLDVWGQGTTVTVSS
VL: EIVLTQSPGTLSLSPGERATLSCRASQSVSSNYLAWYQQKPGQAPRLLIYGASSRATGIPDRFSGSGSGTDFTLIISRLEPEDFVVYYCQQYGSSLTFGGGTKVEIKR
notes: Human antibody; also called Ab 1S1
B2: human hepcidin (mature, 25 amino acids) (peptide)
peptide: DTHFPICIFCCGCCHRSKCGMCCKT
modifications: disulfide (positions not given here); also: mono-biotinylated in some assays, site not given here
notes: the form is named in each assay field; also called rhuHepc; rhHepc
B3: antibody 1S3 (antibody, human IgG2, lambda, V domains shown)
VH: QVQLVESGGGVVQPGRSLRLSCAASGFTFSSYGMHWVRQAPGKGLEWVAVIWYAESNKYYADSVKGRFTISRDNSKNTLYLQMNSLRAEDTAVYYCARAQEGIAPDAFDIWGQGTMVTVSS
VL: YELTQPPSVSVSPGQTATITCSGDKLGERYASWYQQRPGQSPVLVIYQDIKRPSGIPERFSGSNSGNTATLTISGTQAMDEADYFCQAWYSSTNVLFGGGTKLTVLG
notes: Human antibody
B4: murine antibody 2.7 (antibody, V domains shown)
VH: QIQLVQSGPELKKPGETVKISCKASGYTFTTYGMSWVKQAPGKGLKWMGWINTYSGVPTYADDFKGRFAFSLETSASTAYLQINNLKNEDTATYFCGRDHYYGEVAYWGQGTLVTVSA
VL: DIVLTQSPASLAVSLGQRATISCRASESVDSYGNSFMHWYQQKPGQPPKLLIYRASNLESGIPARFSGSGSRTDFTLTINPVEADDVATYYCHQSNEEYTFGGGTKLEIK
notes: Murine monoclonal antibody; murine IgG1 was used as its isotypic control; also called Ab2.7; Ab 2.7
B5: antibody 18B11 (antibody, V domains shown)
VH: QVQLQQWGAGPLKPSETLSLTCAVYNGSFSGYYWSWIRQPPGKGLEWIGDINHSGNTKYNPSLKSRVTISVDTSKNQFSLKLSSVTAADTAVYYCARGDFWSGFDWFDPWGQGTLVTVSS
VL: QSALTQPASVSGSPGQSITISCTGTSSNVGSYNLVSWYQQHPGKAPKLMISEVSKRPSGLSNRFSGSKSGNTASLTISGLQAEDEADYYCCSYAGSSTLIFGGGTKLTVL
notes: Human antibody from Xenomouse IgG2 or IgG4 mice; also called 181311
B6: antibody 23F11 (antibody, V domains shown)
VH: QVQLQQSGPGLVKPSQTLSLTCAISGDSVSSNSAAWNWIRQSPSRGLEWLGRTYYRSKWFNDYAVSVQSRITINPDTSKNQFSLQLNSVTPEDTAVYYCARGIVFSYAMDVWGQGTTVTVSS
VL: NFMLTQPHSVSESPGKTVTISCTRSSGSIASYYVQWYQQRPGSSPTTVIYEDSQRPSGVPDRFSGSIDSSSNSASLTISGLKTEDEADYYCQSYDSSNVVFGGGTKLTVL
notes: Human antibody

How the values were obtained:
[1] = biological target: B2; assay: sandwich ELISA built from 1S1 and 23F11 (one curve for the pair of antibodies), hepcidin titrated; the axis gives hepcidin levels before a 50-fold pre-dilution
murine antibody 2.7 [2] = biological target: B4; assay: competitive binding assay, luminescence, standards in rabbit serum: unlabelled hepcidin against biotinylated human hepcidin (0.25 nM) for Ab2.7
Procedure: (§1) Hepcidin levels were determined using hepcidin standards of varying concentrations (from 1.4-300 ng/ml) spiked into buffer (5% BSA:I-block), rabbit serum, or pooled human serum. Hepcidin was added to equal volumes of 40 ng/mL of Ab2.7 and incubated for 120 minutes. 25 μl/well of mixed solution was added to Black half area plates coated with 1-2 μg/mL G×M capture antibody. 25 μL/well of biotinylated hepcidin was added at 0.25 nM. The plate was covered with plate film sealer and incubated at room temperature (25° C.) on a plate shaker at around <200 RPM for around 60 minutes. The plate was washed and then 50 μL/well of Poly horseradish peroxidase amplification reagent at 1:2000 was added. The plate was allowed to sit for 30 minutes and was then washed with a plate washer using PBS or KPL buffer 6 times. The plate was patted dry and a luminescent substrate (Femto or Pico) was quickly added. The plate was read with luminometer (ex: Lmax 340) for 1 second using Femto or Pico Substrate. […] (FIG. 18).

murine antibody 2.7 [3] = biological target: B4; assay: competitive binding assay, luminescence, standards in buffer (5% BSA: I-block): unlabelled hepcidin against biotinylated human hepcidin (0.25 nM) for Ab2.7
Procedure: as §1

murine antibody 2.7 [4] = biological target: B4; assay: competitive binding assay, luminescence, standards spiked into pooled human serum (endogenous hepcidin present, not counted on the axis): unlabelled hepcidin against biotinylated human hepcidin (0.25 nM) for Ab2.7
Procedure: as §1

[5] = biological target: B2; assay: BIAcore, recombinant human hepcidin immobilised on a CM5 chip, 50 nM antibody bound at pH 7.4, dissociation buffers of pH 7.4, 6 and 5.5 (curves not labelled by pH)
Procedure: (§2) Off-rate analysis of dissociation at different pHs was also performed. A slow off-rate is expected to predict increased binding interaction over a longer period of time, while a faster off-rate is expected to predict decreased binding interaction. For example, a faster off-rate at lower pH is expected to predict greater release of antigen at lower pH. Solution equilibrium binding analysis was performed using BIAcore to study the off-rates of antibodies 1S1, 1S3, 2.7, 18B11, 23F11 and 26F11 with recombinant human hepcidin (SEQ ID NO: 9).
Immobilization of recombinant human hepcidin (rhuHepc) to a BIAcore sensor chip surface was performed according to manufacturer's instructions at a flow rate 10 μL/min of running buffer (DPBS: Dulbecco's Phosphate Buffer Salinel X, no CaCl or MgCl, with 0.005% Biacore surfactant P-20). The carboxylated matrix of the sensor chip was first activated with a 60 μL injection of a mixture containing 0.2 M EDC(N-ethyl-N-(dimethylamine-propyl)carbodiimide in water, from BIAcore) and 0.05M NHS (N-hydroxysuccinimide in water, from Biacore). 55 μL of recombinant human hepcidin (1 μg/ml in 10 mM Na-acetate pH4.0) was injected to immobilize onto the sensor chip. The excess reactive groups of the sensor chip were deactivated with an injection of 60 μL of ethanolamine (1.0M, from Biacore).
After rhuHepc was immobilized on the CM5 chip with low density, 50 nM of antibodies 1S1, 1S3, 2.7, 18B11, 23F11 and 26F11 were injected over and bound the rhuHepc surface at pH 7.4. Dissociation buffers with pH 7.4, pH6 and pH 5.5 were run over the bound surface. The dissociation curves were obtained.

mouse hepcidin = biological target: T1, mouse hepcidin; assay: competition ELISA
[6] = biological target: B2; assay: KinExA solution equilibrium, human hepcidin-coated beads
Procedure: SA-Sepharose beads were pre-coated with biotinylated human hepcidin (SEQ ID NO: 9) and blocked with BSA according to manufacturer's instructions. Antibodies and hepcidin were diluted in PBS/0.1% BSA/0.05% NaN₃ buffer. Fixed concentrations of antibodies 15E1, 15E1 W52H, 15E1 A99H, 15E1 N521-1, 15E1 A107H and 18B11 were incubated with various concentrations of human hepcidin at room temperature for 8 hours before being run through the human hepcidin-coated beads. The amount of the bead-bound antibody was quantified by fluorescently (Cy5)-labeled goat anti-murine-IgG (H+L) antibody (Jackson Immuno Research, West Grove, Pa.). The binding signal is proportional to the concentration of free antibody at equilibrium. Dissociation equilibrium constant (KD) was obtained from nonlinear regression of the competition curves using a dual-curve one-site homogeneous binding model (KinExATM Pro software).

[7] = biological target: B2; assay: antibody at 1:250 dilution; KinExA / BIAcore named in the paragraph
[8] = biological target: B2; assay: ELISA, mono-biotinylated human hepcidin on Neutravidin plate, pH 6.0
Procedure: (§3) Differential pH binding of the antibodies listed above in Table 3 was then determined by ELISA. 50 μL of Neutravidin (Pierce) at 8 μg/mL in 1×PBS was coated upon a Nunc Maxisorp 384-well plate, and incubated at 37° C. for 1 hr. After blocking the wells with 0.1% BSA/PBS/0.05% Tween20 for 1 hour at room temperature, plates were washed six times with PBS/0.05% Tween20. 25 μL of mono-biotinylated hepcidin at 50 ng/mL in 0.1% BSA/PBS/0.05% Tween20 was added to the 384-well plate, and incubated at room temperature for 1 hour. The plates were next washed six times with PBS/0.05% Tween20. Starting hepcidin antibody concentrations were normalized to 1 μg/mL for pH 5.5 and 6.0 conditions and to 100 ng/mL for pH 7.4 conditions. The hepcidin antibodies were serially diluted 3-fold in PBS/1% NFDM pH 7.4 and 4-fold in PBS/1% NFDM pH 6.0 and 5.5. The dilutions and titrations were performed in polypropylene 96-well dilution plates, and then were transferred in duplicate to a Neutravidin-coated 384-well plate. The biotinylated hepcidin and antibodies were incubated for 2 hours at room temperature. The plate was next washed six times with PBS/0.05% Tween20. 25 μL it of goat anti-huIgG-horseradish peroxidase at a 1:7000 dilution in 0.1% BSA/PBS/0.05% Tween20 was next added to each well of the assay plate. The plate was finally washed six times in PBS/0.05% Tween20. Enhanced K-Blue 3,3′,5,5′-Tetramethylbenzidine (TMB) Substrate (Neogen) was added and the reaction stopped using 1 M H₃PO₄ after 10 minutes of incubation at room temperature. The absorption was measured at 450 nm on a plate reader. Binding data were analyzed by non-linear regression analysis (sigmoidal dose-response, variable slope) to generate EC₅₀ values using GraphPad Prism® software. […] Double combinations of these mutants were made.

[9] = biological target: B2; assay: ELISA, mono-biotinylated human hepcidin on Neutravidin plate, pH 7.4
Procedure: as §3

[10] = biological target: B2; assay: BIAcore, rhuHepc immobilised on CM5 chip, dissociation buffers of pH 7.4, 6 and 5.5; dissociation buffer pH 7.4
Procedure: as §2
Immobilization of recombinant human hepcidin (rhuHepc) to a BIAcore sensor chip surface was performed according to manufacturer's instructions at a flow rate 10 μL/min of running buffer (DPBS: Dulbecco's Phosphate Buffer Salinel X, no CaCl or MgCl, with 0.005% Biacore surfactant P-20). The carboxylated matrix of the sensor chip was first activated with a 60 μL injection of a mixture containing 0.2 M EDC(N-ethyl-N-(dimethylamine-propyl)carbodiimide in water, from BIAcore) and 0.05M NHS (N-hydroxysuccinimide in water, from Biacore). 55 μL of recombinant human hepcidin (1 μg/ml in 10 mM Na-acetate pH4.0) was injected to immobilize onto the sensor chip. The excess reactive groups of the sensor chip were deactivated with an injection of 60 μL of ethanolamine (1.0M, from Biacore). […]

Binder: B1
- EC50 (read off the curve) [1]: ~100 ng/mL

Binder: B2
- IC50 (read off the curve) (murine antibody 2.7 [2]): ~7 ng/mL
- IC50 (read off the curve) (murine antibody 2.7 [3]): ~8 ng/mL
- IC50 (read off the curve) (murine antibody 2.7 [4]): ~10 ng/mL

Binder: B3
- binding result [5]: binds

Binder: B4
- binding result [5]: binds

Binder: B5
- binding result (mouse hepcidin): no binding
- Kd [6]: 7.4 nM
- fold reduction in affinity at pH 6 compared to pH 7.4 [7]: ~10 fold
- EC50 [8]: 244 ng/mL
- EC50 [9]: 2.7 ng/mL
- koff [10]: > 0.01 s⁻¹

Binder: B6
- EC50 (read off the curve) [1]: ~100 ng/mL
